Assays:
biotinylated CD32bECDHis [1] = target: T1, biotinylated CD32bECDHis (human, UniProt P31994 43-223, limits assumed, biotinylated (sites not given)); test: competition ELISA, competitor 028
T1 sequence (looked up): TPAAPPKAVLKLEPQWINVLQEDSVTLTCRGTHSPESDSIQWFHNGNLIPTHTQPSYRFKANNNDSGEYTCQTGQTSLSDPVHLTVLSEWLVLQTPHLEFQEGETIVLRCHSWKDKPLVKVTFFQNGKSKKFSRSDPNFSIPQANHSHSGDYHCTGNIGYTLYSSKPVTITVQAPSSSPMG
Protocol: (§1) ELISA wells were coated overnight at 4° C. with anti-CD32b HuMabs serially diluted in PBS. The ELISA wells were washed with PBS, blocked for one hour at room temperature with 2% (v/v) chicken serum (Gibco, Paisley, Scotland) in PBS and washed again with PBS. Subsequently, the immobilized antibodies were incubated with biotinylated CD32bECDHis serially diluted in PBSTC. After washing with PBS/Tween, bound biotinylated CD32bECDHis was incubated with Streptavidin-poly-HRP (Sanquin, Amsterdam, The Netherlands) for 1 hr at RT an the reaction was developed as described supra.
(§2) To this end, ELISA wells coated with anti-CD32b HuMabs were incubated in the presence of an excess of CD32b-specific antibody and the predetermined concentration of biotinylated CD32bECDHis in fluid phase. The reaction was developed as described.

biotinylated CD32bECDHis [2] = target: T1, biotinylated CD32bECDHis; test: competition ELISA, competitor 024
Protocol: as §1, §2

biotinylated CD32bECDHis [3] = target: T1, biotinylated CD32bECDHis; test: competition ELISA, competitor 053
Protocol: as §1, §2

biotinylated CD32bECDHis [4] = target: T1, biotinylated CD32bECDHis; test: competition ELISA, competitor 026
Protocol: as §1, §2

biotinylated CD32bECDHis [5] = target: T1, biotinylated CD32bECDHis; test: competition ELISA, competitor 022
Protocol: as §1, §2

biotinylated CD32bECDHis [6] = target: T1, biotinylated CD32bECDHis; test: competition ELISA, competitor 034
Protocol: as §1, §2

biotinylated CD32bECDHis [7] = target: T1, biotinylated CD32bECDHis; test: competition ELISA, competitor 016
Protocol: as §1, §2

biotinylated CD32bECDHis [8] = target: T1, biotinylated CD32bECDHis; test: competition ELISA, competitor 038
Protocol: as §1, §2

biotinylated CD32bECDHis [9] = target: T1, biotinylated CD32bECDHis; test: competition ELISA, competitor 020
Protocol: as §1, §2

CD32bECDHis = target: T2, CD32bECDHis (human, UniProt P31994 43-223, limits assumed); test: TR-FRET competition against HuMab-KLH-AlexaFluor 647 (N = 2)
T2 construct: Produced in HEK-293F cells; also called extracellular domain of CD32b with C-terminal His tag; soluble CD32b
T2 sequence (looked up): T1 sequence (looked up)
Excerpt: To study the interaction of anti-CD32b HuMabs with CD32b and CD32a in more detail TR-FRET technology was applied. To this end, CD32bECDHis and CD32aECDHis were labeled with a fluorescent donor molecule directed against the histidine tag (Anti-6×His Europium3+, PerkinElmer, Boston Mass.).
Briefly, all dilutions were made in 0.5× Lance detection buffer (PerkinElmer, Boston Mass.) supplemented with 0.2% BSA (obtained via dilution of 7.5% BSA Stabilizer solution, cat: CR84-100, PerkinElmer) and 0.03% (v/v) Tween-20 (Riedel de Haen, Seelze, Germany). CD32bECDHis and CD32aECDHis were diluted to 0.5 μg/ml. […] Anti-6×His Europium3+ (PerkinElmer, Boston Mass.) was diluted to 0.15 μg/ml. […] After overnight incubation at 4° C. in the dark, fluorescence was measured using an EnVision 2101 Multilabel reader (PerkinElmer, Boston, Mass.) applying the following settings; Lance/Delfia dual mirror, emission filter 615-665 nm, excitation filter 320 nm, delay time 60 μs, window 100 μs, 100 flashes, 2000 μs per cycle and bidirectional row-by-row reading. Binding curves were analyzed using non-linear regression (sigmoidal dose-response with variable slope) using GraphPad Prism V4.03 software (GraphPad Software, San Diego, Calif., USA).

biotinylated CD32bECDHis [10] = target: T1, biotinylated CD32bECDHis; test: competition ELISA, competitor 063
Protocol: as §1, §2

[11] = target: T3, full length CD32b2 on transfected IIA1.6 cells (human, UniProt P31994-2 43-291); test: flow cytometry on IIA1.6-CD32b2 cells
T3 construct: whole, on cells; also called IIA1.6-CD32b2
T3 sequence (looked up): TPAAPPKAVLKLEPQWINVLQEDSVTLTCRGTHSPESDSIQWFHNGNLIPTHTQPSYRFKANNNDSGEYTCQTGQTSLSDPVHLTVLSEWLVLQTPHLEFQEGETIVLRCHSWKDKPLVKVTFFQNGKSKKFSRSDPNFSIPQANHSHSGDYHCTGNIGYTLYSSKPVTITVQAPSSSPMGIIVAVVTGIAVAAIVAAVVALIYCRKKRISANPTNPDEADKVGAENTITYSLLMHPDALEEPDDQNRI
Protocol: After harvesting and counting, IIA1.6 cells stably transfected with full length CD32a and CD32b (van den Herik-Oudijk et al., 1994), control IIA1.6 cells and Daudi-luc cells were resuspended in PBS (1×10⁶ cells/ml). Cells were put in 96-well V-bottom plates (100 μl/well) and washed twice with FACS buffer (PBS supplemented with 0.1% BSA and 0.02% Na-azide). Thereafter, 50 μl of serially diluted HuMab in FACS buffer was added to the cells and incubated for 30 minutes at 4° C. After washing three times with FACS buffer, 50 μl of phycoerythrin (PE)-conjugated rabbit anti-human IgG (Jackson ImmunoResearch Europe), diluted 1:200 in FACS buffer, was added. After 30 minutes at 4° C. (in the dark), cells were washed three times, and specific binding of the HuMabs was detected by flow cytometry on a FACSCalibur (BD Biosciences). […] Binding curves were analyzed using non-linear regression (sigmoidal dose-response with variable slope) using GraphPad Prism V4.03 software (GraphPad Software, San Diego, Calif., USA).
To analyze binding of anti-CD32b HuMabs to CD32b1 and CD32b2, IIA1.6 cells transfected with full length CD32b1 or CD32b2 (van den Herik-Oudijk et al., 1994) were prepared as described supra. The assay was performed as described supra. Flow cytometry was performed on a FACS Canto II (BD Biosciences).

biotinylated CD32bECDHis [12] = target: T1, biotinylated CD32bECDHis; test: competition ELISA, competitor 2B6
Protocol: as §1, §2

% residual binding (biotinylated CD32bECDHis [1]): 75%
% residual binding (biotinylated CD32bECDHis [2]): 56%
% residual binding (biotinylated CD32bECDHis [3]): 90%
% residual binding (biotinylated CD32bECDHis [4]): 83%
% residual binding (biotinylated CD32bECDHis [5]): 63%
% residual binding (biotinylated CD32bECDHis [6]): 23%
% residual binding (biotinylated CD32bECDHis [7]): 98%
% residual binding (biotinylated CD32bECDHis [8]): 98%
% residual binding (biotinylated CD32bECDHis [9]): 83%
IC50 (CD32bECDHis): 0.45 nM
% residual binding (biotinylated CD32bECDHis [10]): 89%
EC50 [11]: 69 nM
% residual binding (biotinylated CD32bECDHis [12]): 90%
B1: Antibody 034 (antibody, human IgG1, V domains shown)
VH: EVQLLESGGGLVQPGGSLRLSCAASGFTFSNFVMSWVRQAPGKGLEWVSGISGSGGNTDHADSVKGRFTISRDNSKNTVYLQMNSLRAEDTAVYYCAKDSGGLFDYWGLGTLVTVSS
VL: not shown
notes: Human antibody; also called HuMab 034

Source: US20110038869A1 (Genmab, published 2011)
